Experimental data reported in IntAct's records for PubMed 19661922.

B1: 5-hydroxytryptamine receptor 4 (Mus musculus), P97288 (parent)
chain: MDKLDANVSSNEGFRSVEKVVLLTFLAVVILMAILGNLLVMVAVCRDRQLRKIKTNYFIVSLAFADLLVSVLVMPFGAIELVQDIWAYGEMFCLVRTSLDVLLTTASIFHLCCISLDRYYAICCQPLVYRNKMTPLRIALMLGGCWVLPMFISFLPIMQGWNNIGIVDVIEKRKFSHNSNSTWCVFMVNKPYAITCSVVAFYIPFLLMVLAYYRIYVTAKEHAQQIQMLQRAGATSESRPQPADQHSTHRMRTETKAAKTLCVIMGCFCFCWAPFFVTNIVDPFIDYTVPEQVWTAFLWLGYINSGLNPFLYAFLNKSFRRAFLIILCCDDERYKRPPILGQTVPCSTTTINGSTHVLRDTVECGGQWESRCHLTATSPLVAAQPSDT

Experiments:
grk5_human GRK5, P34947 [1] = variants of: B1; settings: with grk5_human GRK5, P34947
Sequence of grk5_human GRK5, P34947 (P34947 whole entry, looked up): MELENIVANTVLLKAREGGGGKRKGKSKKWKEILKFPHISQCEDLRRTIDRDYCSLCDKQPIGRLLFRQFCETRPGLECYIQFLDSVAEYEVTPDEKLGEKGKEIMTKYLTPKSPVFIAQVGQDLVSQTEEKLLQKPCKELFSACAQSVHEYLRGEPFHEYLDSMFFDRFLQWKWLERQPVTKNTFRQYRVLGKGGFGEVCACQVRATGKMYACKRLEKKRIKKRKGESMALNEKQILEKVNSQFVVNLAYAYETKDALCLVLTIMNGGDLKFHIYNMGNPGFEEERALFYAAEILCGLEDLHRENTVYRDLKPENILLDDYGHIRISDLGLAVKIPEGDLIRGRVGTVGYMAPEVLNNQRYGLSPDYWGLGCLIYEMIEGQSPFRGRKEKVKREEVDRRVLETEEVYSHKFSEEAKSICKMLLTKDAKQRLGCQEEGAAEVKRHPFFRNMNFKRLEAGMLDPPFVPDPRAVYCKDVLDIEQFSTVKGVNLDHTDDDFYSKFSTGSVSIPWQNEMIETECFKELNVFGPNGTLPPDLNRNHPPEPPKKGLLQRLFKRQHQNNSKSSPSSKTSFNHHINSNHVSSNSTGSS

grk5_human GRK5, P34947 [2] = variants of: B1; settings: with grk5_human GRK5, P34947; remark: listed apart in the source

| effect of a mutation on the interaction (grk5_human GRK5, P34947 [1]) | effect of a mutation on the interaction (grk5_human GRK5, P34947 [2]) | Variant |
| --- | --- | --- |
| decreasing interaction | disrupting interaction | MDKLDANVSSNEGFRSVEKVVLLTFLAVVILMAILGNLLVMVAVCRDRQLRKIKTNYFIVSLAFADLLVSVLVMPFGAIELVQDIWAYGEMFCLVRTSLDVLLTTASIFHLCCISLDRYYAICCQPLVYRNKMTPLRIALMLGGCWVLPMFISFLPIMQGWNNIGIVDVIEKRKFSHNSNSTWCVFMVNKPYAITCSVVAFYIPFLLMVLAYYRIYVTAKEHAQQIQMLQRAGATSESRPQPADQHSTHRMRTETKAAKTLCVIMGCFCFCWAPFFVTNIVDPFIDYTVPEQVWTAFLWLGYINSGLNPFLYAFLNKSFRRAFLIILCCDDARYKRPPILGQTVPCSTTTINGSTHVLRDTVECGGQWESRCHLTATSPLVAAQPSDT [E332A] |
| decreasing interaction | disrupting interaction | MDKLDANVSSNEGFRSVEKVVLLTFLAVVILMAILGNLLVMVAVCRDRQLRKIKTNYFIVSLAFADLLVSVLVMPFGAIELVQDIWAYGEMFCLVRTSLDVLLTTASIFHLCCISLDRYYAICCQPLVYRNKMTPLRIALMLGGCWVLPMFISFLPIMQGWNNIGIVDVIEKRKFSHNSNSTWCVFMVNKPYAITCSVVAFYIPFLLMVLAYYRIYVTAKEHAQQIQMLQRAGATSESRPQPADQHSTHRMRTETKAAKTLCVIMGCFCFCWAPFFVTNIVDPFIDYTVPEQVWTAFLWLGYINSGLNPFLYAFLNKSFRRAFLIILCCDAERYKRPPILGQTVPCSTTTINGSTHVLRDTVECGGQWESRCHLTATSPLVAAQPSDT [D331A] |
| decreasing interaction | disrupting interaction | MDKLDANVSSNEGFRSVEKVVLLTFLAVVILMAILGNLLVMVAVCRDRQLRKIKTNYFIVSLAFADLLVSVLVMPFGAIELVQDIWAYGEMFCLVRTSLDVLLTTASIFHLCCISLDRYYAICCQPLVYRNKMTPLRIALMLGGCWVLPMFISFLPIMQGWNNIGIVDVIEKRKFSHNSNSTWCVFMVNKPYAITCSVVAFYIPFLLMVLAYYRIYVTAKEHAQQIQMLQRAGATSESRPQPADQHSTHRMRTETKAAKTLCVIMGCFCFCWAPFFVTNIVDPFIDYTVPEQVWTAFLWLGYINSGLNPFLYAFLNKSFRRAFLIILCCADERYKRPPILGQTVPCSTTTINGSTHVLRDTVECGGQWESRCHLTATSPLVAAQPSDT [D330A] |
